Test results reported in a protein production outcome set (Wang et al. 2014).

Assay: label from the status in PepcDB records

Sequence	protein production
MLCLHAPSRCEAAPAFPHTYSHYSEQEQLTALLADFGRTQGLATSFSPGVTGTVSGRFEDVAPEKFLQGMKAAFGVSWYRLGPTLHFYHEAETTRIFISPRVMSAESLYRMLRQSSVLSPQLPAELMPGGAMVVVSGPPAYLDQIQAAVTAFEEAQTGNFGMKVFPLKYAWAEDITVNSMDKTVTLPGVASILRAMVSGSPSSATRVTQETATVDKLSGTGLISQGRQQKESGQSNQAQRGGQASQQDSGGAQDGQQVSIMADPRVNAVIVHDAVYRMPYYESVIGDLDRPVELVEIHAAIVDIDTNFKRDLGVTYQATVGKDQRWAGGADVSTGTDKFTPLPVPGVPQGSGLTLSTIYTMGSDYFLARINALEKNGEARMLGRPSVLTVDNVQATLENTSTYYIQVQGYQAVDLFKVEAGTVLRVTPHIINNDDGTDAIKLVVSVQDDQNNQTTPTSTSTTQAIPPIKQTKINTQAIIGAGQSLLIGGYYYEQKATSADGVPILMNIPVLGNLFKTQSKENKRMERLILITPKVVRLDNLPGTPPRVDDPAFHRTATQSDYAERTPTPPPSRRSGCSRAPDNAPEAASGAAGGTGGTGVTANTEGGTTPQAATSPVPAYGVAP	failed
MPARPGAARERIRSTAAPAVGEKVLNALRDLPAGMIYTLGAKPTVLRGLALAIEKRVKGIDWSPDGATLFAEVMDGSRHHEVRLEANGGFLTPSCDCPLWRPTGHCPHVIAALAVLKKGLVHQAITSLRLDSDYLAEVSGWLSGVEAAQPTAPAVPRLVVERGADGIQARIWLGEHPVSIHDQALPRTVRDFLWTLLNPRESGFIIERYLEAFGDDAPMALRQDDNEIPLRFDRGRVHGTLTLLEQVRGMVIARKGLEDGHPIPDTCFAAYRYYFDIPAGAVRVIDSFEGWDLWNTINYEAAEWSLDTGVSVERNSRTISLPADAFNAIGLTVTEKGLPTILERIRFYGAGGPGEPARITHNYRLRVADMNDTTALLLAEGVYGDAAIPLSAGAFSFFTSRGRSTASVPLRTKKRSSAVIAGCFAALDCVTRAELERTIRHALAGDDFLKRTVKSEAKRIITAFAAACETRETTLLAADGAWLISVAEPKVEAQLLEIPYRLFGAEIFGSSDLAGAMTVNRDALFRQFPALHNRLAEAGFDLVLQDRPVEAVTLDVTLDATRSTLDWFELRPEIRCGTGELTEQEIAEAMASGGVFRRGDSFLLINEESSRILAMLYPEAGVKKRRKAEVVRIPRLQILDWLVLRHHGVSVRLSPEDERIFASLATFEEIPSSPLPERLQATLRHYQVDAFHWLAFLYTHRFGACLADDMGLGKTIQAISLLAALHEGTLPSRVPEPRPHLIVVPPSLLFNWENELARFYPAFTVLTYRGTGRSADFTGVDIVLTSYGIIPRDIGILAEIPFHCIVFDEAQAVKNIQADTTGACRRLRGAFTLCLTGTPVENHLGEYFSVMDLAVPGLLGSYEEFRRQAGNAAAPFLETLVRRTRPFVLRRSKQMIAAELPPKIETDIYLELTPRQKALYTRTVEEVRETVLEAWRGKSPGQARIIALTAILRLRQLCLSPRLLIADSREPSPKVEFLVEQLEELFTEGHSVLVFSQFTSFLDIVEGELSRRGVHYYRLDGSTPVPERKRLVTAFQKGDEPSVFLLSLKAGGKGLNLTRATYVFHLDPWWNPAVENQASDRAHRIGQTRQVTITRLVMRHTIEEKMMELKKRKLKLYHALLEENSAGDGGGISREDFEFLLG	failed
MSSSVVAETVPSGSGSWFSHFKATLVLGIPLIGAQLAQLGIHTTDMVIVGQLGAEKLAAMVLAGQFFFVVFIFGSGFSVAVVPMVAQAYGQGDATSARRSLRMGMWVAIAYWLLALPIFFNAERILVYLGQNPNVAALTGHYLAIAKFGLLPALLFYVLRGLVSAIGRAGIILYVTIIMLVMNGLMAYVLVFGHFGLPAMGMNGAAVVAVIVNAFSFIFIVAYVQTREETKKYELFVRFWRPDWHALFEVLRLGLPISITILAEVTLFAAASILMGQIGTVQLAAHGIALQLASIAFMIPLGLSQAATVRVGVARGQGDFKNLIRASIMIYAIACGIALCGGILFAAVPEFLAKWFLDPKLPEAAEVLAYASSLVVIAGIFQLVDGIQAVTAGLLRGLKDARIPAMLALISYWPIGLALAWTMAFPLGFGGRGVWFGFVIGLSTAAVLLTVRFVLLVKREMKTAR	failed
MEVIREQEFVNQYHYDARNLEWEEENGTPKTNFEVTFQLANRDEAAKVTSIVAVLQFVIVRDEFVISGVISQMAHIQGRLINEPSEFSQDEVENLAAPLLEIVKRLTYEVTEIALDRPGVTLEFNS	not failed
MLLHGTNRSLRTGLRARGRGSTGARGTLAVSHAAGPSSHSLTLHSCALLPYTLHAHAFFPCAQTNMASSKKAIYAAILGNFAIAVTKFLGAAVSGSSAMLAEGIHSLVDTGNGGLLLLGLRRSKRPPDENHPYGYGKSLYFYTLVVAVLIFGLGGGISLYEGILHTLDPGHGGASTASVLGVTVGGLMLNTVVLGAAIVFEGLALRTALQEFKKQRGDTPFFEAIVTSKDPTTFTVVFEDTAALAGLVVALVGIHLASLLHMPVIDGIASIIIGLILCGVAAFLIWESKKLLIGEAAAPEIRDDIRRMAHDDADIASVERLLTMHMGPRALLLNMDLRFRDDLDANTVEAAVDRLERAIRKAHPSIRYIFVEAGSIARTRASDSGASAAGGPPS	failed
MKRSFSMMTDKRKLHRKKMKRKKRRRRLMFGCLLLFLVLAASGLGYASFLMHKMKTAMNEAYEEIGAKKNTGDHLDPKKDSFTVLFIGIDDSKTRNFKSDTRSDALILAAFNADTQLVKMVSIPRDSYVYIPCEDKYDKITHAHAYGGTKCTIESIERLFDIPIDYYVKMNFYAFIDVVDALGGIEVEVPYNIREKDAEDNRNAIVLKKGYQHLNGEEALALARTRKKDNDIERGKRQQQILQAILKKASHAGSISKYDDVIEAIGSNMKTNFTFDDIKALIYYVSTGNPLQTESLVLQGTDDNEGVYYYRLDEESVQQISDALRSQLHASAGTQLEKERN	failed
MINVLILGAASQISRFLIPDLLADKTVYLTLFARQAPQRLGQYAGESRVTLVDGDWNQEADIEQVMSNQDIVFLASSSLVGNQNVVTVMKHTGVQRLIVAGGLGIDDEVAGKFGNWNTRMMGDYTPYKQAAKVILDSGLNTTYLRMTWLYDENGNEKYQIVPEGQPLRGTQVTRQAVAKLVTAIVRQPSLYQYANIGVVEPGTEWDKPSFYLEHHHHHH	failed
MTVGIIGAGNIGGAFATALGKAGIEAVIANSRGPESLTALVSKLGSTIRAGSVPEAAAQAIVLVAVPWSKIPGALAGLNFGDRIVIDANNSIEAPLYRPADLGGRTSTDIFTALVPGARVVKAFNHLTPKQLSGDPHSEGGRRVLFYSGDDMRAKAEVGAIIDRIGFFGIDLGGLPVGSQLLQFPGGPLPALNLVKFD	failed
MRLSILRARSTGSGQASPRASRTRGARSAAAGGSWVVIFLPLHCGTRSLTMPRRARNAQTASSCSLERPNEWKEPPPVSGFEVTIVDAESVIAWVKAGKVTVFDVREPEEFAAAHIEGAIPNPLSRFDASLIPTDSPVPVVLHCRSGVRCGHAADRLRASGFQGKINRMAGGIIAWQAAGGPVVSG	failed
MTRPEASGPPDATRLGHLLGPHGVQGGIKLYVLGDPAQVLALKRVYVESRGWLSLRRAEGMPPNLVLYLAGVSSREGAEELRGLQVYATDAELPDLEEGTFYYHDLRGLEVYGAGGERLGTVSDVMDAGHQDLLVVDYGGGTSFVPLQAPYVEVPLAGGKPGAVHLTADAPAGLIGPEPGEEDGAAESLEHHHHHH	not failed
MDLSLSTRTVGDRTVVEVGGEIDVYTAPKLREQLVELVNDGNFHLVVDMEGVDFLDSTGLGVLVGGLKRVRAHEGSLRLVCNQERILKIFRITGLTKVFPIHTSVEEAVAATD	failed
MEGLEAYDYHLPPEQIAQEGVEPRDMARLMVVYREGPFRVAHKRVRDLPEFLRPGDVLVFNESKVIPARLLARKPTGGKVEILLVRERSPGLWEALLGPARKAPPGTRLLLLSPKDLAPVPGLQAEVVAVEEDGVRLLRFQGDLVAHLEEVGEVPLPPYIKAKIPMERYQTVYARRPGSVAAPTAGLHFTPELLERLREMGVELRFLTLHVGPGTFRPVKGDPEKHEMHAEPYAIPEEVAEAVNRAKAEGRRVVAVGTTVVRALESAYREGVGVVAGEGETRLFIRPPYTFKVVDALFTNFHLPRSTLLMLVAAFLGRERTLEAYRLAVAEGYRFYSLGDAMLIL	not failed
TTLQVREQTARRTLAALGYNECVTYSFIDEAAARLFGGGSEAVRVENPISSEMTHLRPDLLPGLLRAAARNQARGFADIALCEIGPVFAGGEPGEQQLQATGLLVGAVAPRDPFGSRRPVDVYDAKADAEAVLAAVGAPARMQISRKVPGWWHPGRSGIVGLGPNVLATFGEVHPRILREMDVKGPAVAFTVLVANVPLPKVKTPTRPALKL	failed
MRCTRLEARRMLSHINENQQPQMVDISEKAVSDRRAVAEALIELPPVFQAYVQGGDLFLKKGPVVQTAIIAGTMAVKRTAEVIPFCHPLPITSCRFETDIESQESGLRIRLRCEVKTCDRTGVEMESLHGVAIAALTIYDMAKALSPHIVIREVRLLAKSGGKKTLGQYPLYGLVLTGGQSQRMGQAKALLDYYGEPHAQYLYNLLAQSCEQVFLSAQPNQWQGTPLADLPTLPDILPQIGPIAGILTALRAYPQVNWLVVACDLPYLTTETLAPLLHHYREDVVATCYHHPQEGFPEPLCAIYTPQALPVFEAAYAEGIYCPVKILQRSPCQRIAPPQPTITANINTPEEYHEALHHVRRP	failed
MEVERLSLKEFCDMVAERKPTPGGGAVGSVVGAMACALAEMVANFTRKKKGYEDVEPEMERIVEAMEEARLKLFDLAKKDMEAFEKVMKAYKSSEGELQNALKEAASVPMDVIRVMKDLAHELEKLAEFGNKNLASDTLNAADLCHAVFQVEKVNVLINLKEISDETFRKNMLEELEEQEAQIEGCYQRVKKMLEGIVWSSK	not failed
MNSPANITDPLVLFMPSGKRGRFPVGTPVLDAARQLGVYVESVCGGRATCGRCQIEVQEGNFAKHKIVSSNDHISPKGPKEERYERVRGLPERRRLSCSAQILGDLVIDVPQDTVINALEHHHHHH	failed
MITQRQNDILNLIVELFTQTHEPVGSKALQRTIDSSSATIRNDMAKLEKLGLLEKAHTSSGRMPSPAGFKYFVEHSLRLDSIDEQDIYHVIKAFDFEAFKLEDMLQKASHILSEMTGYTSVILDVEPARQRLTGFDVVQLSNHDALAVMTLDESKPVTVQFAIPRNFLTRDLIAFKAIVEERLLDGSVMDIHYKLRTEIPQIVQKYFVTTDNVLQLFDYVFSELFLETVFVAGKVNSLTYSDLSTYQFLDNEQQVAISLRQSLKEGEMASVQVADSQEAALADVSVLTHKFLIPYRGFGLLSLIGPIDMDYRRSVSLVNIIGKVLAAKLGDYYRYLNSNHYEVH	failed
MDEGCVIAFLVWVDNGECILERQSAPDELNLFDIILVAKEQWRLLLAVPLLLAVLAAGISLAMPDQYTAKALVNIPAPVGAAGGVNIVQSTSLLEQAVEKFQLQRYYAVEDNRSALLALSNVVKTTAGKDGLLEISATDRNAEQAARLGNYLADLTRQHILDGNLTEQSKRYFVLQKRLDVESEQVSQLSRKVAQLVPDQEAALGGEGMQLISGFATLEAQLAFQNVQAAGNSGAVSNLQSSVMQLRASLELANPKVRQMSNEQLAGLRDLYFHRALAAELQRQVSLAKSLADQDVQIVLKASAPLEKSGPKRTLIVLLAGLVGLMLAIALIVCKRQWRELSNRFAKNTAA	failed
MDVLSPGQGNNTTSPPAPFETGGNTTGISDVTVSYQVITSLLLGTLIFCAVLGNACVVAAIALERSLQNVANYLIGSLAVTDLMVSVLVLPMAALYQVLNKWTLGQVTCDLFIALDVLCCTSSILHLCAIALDRYWAITDPIDYVNKRTPRRAAALISLTWLIGFLISIPPMLGWRTPEDRSDPDACTISKDHGYTIYSTFGAFYIPLLLMLVLYGRIFRAARFRIRKTVKKVEKTGADTRHGASPAPQPKKSVNGESGSRNWRLGVESKAGGALCANGAVRQGDDGAALEVIEVHRVGNSKEHLPLPSEAGPTPCAPASFERKNERNAEAKRKMALARERKTVKTLGIIMGTFILCWLPFFIVALVLPFCESSCHMPTLLGAIINWLGYSNSLLNPVIYAYFNKDFQNAFKKIIKCKFCRQ	failed
